The numbers were not newly measured in publication PMC5659385, which cites them from elsewhere.

The series concerns the target concanavalin A (Canavalia ensiformis) (UniProt P02866).
Chain of UniProt P02866 (P02866 30-148, chain 1 of 2): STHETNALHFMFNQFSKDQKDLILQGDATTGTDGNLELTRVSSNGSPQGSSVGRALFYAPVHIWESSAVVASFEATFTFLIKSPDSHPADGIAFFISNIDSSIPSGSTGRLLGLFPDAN
Chain of UniProt P02866 (P02866 164-281, chain 2 of 2): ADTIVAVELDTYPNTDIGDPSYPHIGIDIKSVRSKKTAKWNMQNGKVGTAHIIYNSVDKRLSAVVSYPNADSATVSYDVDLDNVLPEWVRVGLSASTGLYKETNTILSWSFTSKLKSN

glucose oxidase (from UniProt P13006): the Kd was 1.64 nM.

One may read the Kd as the equilibrium constant for the complex coming apart.
